# Values joined by “and” are separate entries in the source; they are usually repeats but may differ in a detail not shown here. Identical values can stand only once.
# Key:
# [1] = Relative potency of penetrating peptides as tested in mice (Example 3); assay type: in vivo; conditions: IBW-002 = 100
# Excerpt: Relative Potency of Penetrating Peptides as Tested in Mice.
# [2] = Translocation of ^125I-labeled peptide from mouse intestine loop into blood and organs (Example 1); assay type: in vivo, BALB/c mice; conditions: for recovered cpm/mouse / blood 15′, total cpm in the blood / blood 30′, total cpm in the blood / blood 60′, total cpm in the blood / blood/injected cpm (%), 15′ / blood/injected cpm (%), 30′ / blood/injected cpm (%), 60′ / recovered/injected cpm (%) / Epididymal fat, cpm recovered / brain, cpm recovered / kidney, cpm recovered / liver, cpm recovered / lungs, cpm recovered: Table 2 formulation (PE 6,200), intestinal loop, 224,160 cpm injected per mouse; for recovered cpm/mouse: blood 60′ plus organs; for blood 15′, total cpm in the blood / blood 30′, total cpm in the blood / blood 60′, total cpm in the blood: calculated from 50 μl sample assuming 2 ml blood; for Epididymal fat, cpm recovered / brain, cpm recovered / kidney, cpm recovered / liver, cpm recovered / lungs, cpm recovered: organ removed after 60 min
# Excerpt: The tested peptide, representing a penetrating peptide and a radio-labeled probe in a contiguous construct of SEQ ID NO 3 and SEQ ID NO 17, hereby named IBW 002 (Novetide, lot 40139-45, sequence: Ac-NYYDITLALAGICQSARLVQQLAGGGKGGK-NH2 (SEQ ID NO:22), was ^125I-labeled using the Bolton Hunter Reagent (Biochem. J. 133:529-39 (1973)). The labeled peptide was loaded on a Sephadex G10 column, washed with phosphate buffer and eluted with 3M Tiocyanate in DDW+50% n-butanol. The peak, containing 6 fractions, was kept and used for in vivo experiments.
# Four male BALB/c mice, 9-10 weeks old, were deprived of food, 18 hours prior to the experiment.
# The mice were anesthetized by i.p. injection of 0.05 ml of a mixture of 0.15 ml xylazine+0.85 ml of ketamin. A 2 cm long incision was made along the center of the abdomen, through the skin and abdominal wall. An intestine loop was gently pulled out through the incision and placed on wet gauze beside the animal. The loop remained intact through the entire procedure and was kept wet during the whole time. The tested compound was injected into the loop, 0.2 ml/ mouse, containing around 200,000 cpm, using a 26G needle. Fifteen minutes post injection the tip of the tail was cut and a 50 μl blood sample was drawn into a glass capillary. This was repeated 30 and 60 minutes post injection. The animals were subsequently sacrificed. The following organs were removed: epididymal fat, kidneys, liver, lungs and brain. Radioactivity in each organ and in blood samples was counted. A 5 μl sample of the injected solution was counted to determine the total injected cpm per mouse.
# The total radioactive labeling injected per mouse was 224,160 cpm. Total cpm in the blood was calculated based on the 50 μl blood sample drawn out at different time points post injection, in the assumption that total blood volume of each mouse is 2 ml.
# [3] = individual mice, listed as 125I-IBW-002
substance,measurement,setting,value
"Ac-NYYDITLALAGICQSARLVQQLAGGGKGGK-NH2 (Ac-NYYDITLALAGICQSARLVQQLAGGGKGGK-NH2; also: 125I label) [IBW-002, ^125I-labeled using the Bolton Hunter Reagent for in vivo tests]",Relative potency (%),[1],100%
same,recovered cpm/mouse,[2]; [3],"41,440 cpm and 66,525 cpm and 61,642 cpm and 82,325 cpm"
same,recovered cpm/mouse,[2]; mean of 4 mice,"62,983 cpm"
same,"blood 15′, total cpm in the blood",[2]; [3],"37,080 cpm and 68,960 cpm and 62,280 cpm and 80,280 cpm"
same,"blood 30′, total cpm in the blood",[2]; [3],"36,120 cpm and 60,680 cpm and 52,320 cpm and 70,840 cpm"
same,"blood 60′, total cpm in the blood",[2]; [3],"29,720 cpm and 47,800 cpm and 44,000 cpm and 59,720 cpm"
same,"blood 15′, total cpm in the blood",[2]; mean of 4 mice,"62,150 cpm"
same,"blood 30′, total cpm in the blood",[2]; mean of 4 mice,"54,990 cpm"
same,"blood 60′, total cpm in the blood",[2]; mean of 4 mice,"45,310 cpm"
same,"blood/injected cpm (%), 15′",[2]; [3],16.54% and 30.76% and 27.78% and 35.81%
same,"blood/injected cpm (%), 30′",[2]; [3],16.11% and 27.07% and 23.34% and 31.60%
same,"blood/injected cpm (%), 60′",[2]; [3],13.26% and 21.32% and 19.63% and 26.64%
same,recovered/injected cpm (%),[2]; [3],18.49% and 29.68% and 27.50% and 36.73%
same,"blood/injected cpm (%), 15′",[2]; mean of 4 mice,27.73%
same,"blood/injected cpm (%), 30′",[2]; mean of 4 mice,24.53%
same,"blood/injected cpm (%), 60′",[2]; mean of 4 mice,20.21%
same,recovered/injected cpm (%),[2]; mean of 4 mice,28.10%
same,"Epididymal fat, cpm recovered",[2]; [3],"547 cpm and 869 cpm and 973 cpm and 1,174 cpm"
same,"brain, cpm recovered",[2]; [3],138 cpm and 190 cpm and 202 cpm and 301 cpm
same,"kidney, cpm recovered",[2]; [3],"4,068 cpm and 6,614 cpm and 6,400 cpm and 7,650 cpm"
same,"liver, cpm recovered",[2]; [3],"6,102 cpm and 9,709 cpm and 8,718 cpm and 11,674 cpm"
same,"lungs, cpm recovered",[2]; [3],"865 cpm and 1,343 cpm and 1,349 cpm and 1,806 cpm"
same,"Epididymal fat, cpm recovered",[2]; mean of 4 mice,891 cpm
same,"brain, cpm recovered",[2]; mean of 4 mice,208 cpm
same,"kidney, cpm recovered",[2]; mean of 4 mice,"6,183 cpm"
same,"liver, cpm recovered",[2]; mean of 4 mice,"9,051 cpm"
same,"lungs, cpm recovered",[2]; mean of 4 mice,"1,341 cpm"
same,time at which the relative amount in the blood peaked,"[2]; post-intestinal administration, blood sampled at 15, 30 and 60 min, Table 2 formulation",15 min

# Reference: patent publication US20050215478A1, “Amino acid sequences capable of facilitating penetration across a biological barrier” (priority 2002, published 2005)
